# Reference: patent US10654918B2, “Inflammatory disease diagnosis and methods of treatment using down-regulators of lipopolysaccharide-responsive beige-like anchor” (University of South Florida, priority 2013, dated 2020)
# B1: LRBA shRNA: shRNA plasmid against LRBA; targeted LRBA sequence SEQ ID No. 15 GGGATATTGTAGAAACTGTCTTT (nucleic acid)
# sense: GGGATATTGTAGAAACTGTCTTTTTCAAGAGAAAAGACAGTTTCTACAATATCCCTTTTTT
# antisense: CCCTATAACATCTTTGACAGAAAAAGTTCTCTTTTCTGTCAAAGATGTTATAGGGAAAAAA
# Tests used:
# Format in all cases: cell-based, human
# Raji B cells = test: Cytokines of Raji and Raji-9 cells treated with LPS (ELISA, CBA)
# Procedure: FIG. 21 are graphs showing knockdown of LRBA increases the TNFα levels in Raji B (Burkitt's lymphoma) cells. Raji B cells and Raji-9 (stably transfected with shRNA plasmid against LRBA) B cells were treated with LPS (1 μg/ml). The TNFa concentrations were measured by Human TNFα DuoSet ELISA kit (R&D) following the manufacture's instruction. A. Culture supernatant; B. Cell lysate. #=p<0.07, *=p<0.05, **=p<0.005.
# FIGS. 48(A)-(I). Knockdown of LRBA influences the levels of cytokines. A. Raji cells (LRBA WT or KD) were seeded in a 24 well plate wells and stimulated with LPS for 15 min (1), 30 min (2) and 1 hr (3) with 0.26 million cells in each well or for 2 h (4), 4 h (5) and 24 h (6) with 0.2 million cells in each well, 0.2 million of cells were plated in each well. ELISA and CBA assays of TNFα and IL-10. Cells were treated as in A. 0.2×10^6 cells, timepoint. 500 uL total volume medium. Duoset ELISA human TNF-a kit protocol was followed for cell culture supernatant. Blues: Raji (♦); Red: Raji9 (▪). Data are representative of 2 to 5 separate experiments.
# Cell culture supernatants were directly used to detect human Th1 and Th2 cytokines (IL-2, IL-4, IL-5, IL-6, IL-10, TNFα and IFN-γ) using the human Th1/Th2 cytokine bead-array kit (BD Biosciences, San Jose, Calif.) according to the manufacturer's instructions. The TNF[…] concentrations were also measured by Human TNF[…] DuoSet ELISA kit (R&D, Catalog #DY210).
# NFκB = NFκB luciferase activity in A549 clones with LRBA shRNA knockdown; details: A549 clones with different knockdown levels, LPS 10 μg/ml; dose-dependent
# From the text: FIG. 45A-D. Knockdown of LRBA deregulates NFκB. (A) Knockdown of LRBA increases NFκB luciferase activity. An NFκB luciferase reporter was used to measure the NFκB transcription activity. The data are shown as scatter with bar graph of mean with standard error of mean (SEM). (B) Knockdown of LRBA increases phospho-NFκB. The Phosflow kit including Cytofix Fixation Buffer, Phosflow Perm Buffer III and Stain Buffer (BD) and phospho-antibodies, NFκB p65 (pS529) PE-Cy7 were used for the intracellular staining following the company's instruction. For each samples, 50,000 cells were recorded for the FACS assay. (C) A549 cells were stably transfected with LRBA shRNA knockdown plasmid and several clones were picked up. Half million of cells were seeded in a well of a 24 well plate and incubated overnight, then stimulated with LPS (10 μg/ml) for certain time. Luciferase assay Biotium. NFκB luciferase activity is inversely dose-dependent on the LRBA levels in A549 cells with different levels of LRBA knockdown judged by the GFP levels of the cells stably transfected with the LRBA shRNA/GFP construct. (D) LRBA KD#3, LRBA KD#4 and LRBA KD#5 clones express different levels of GFP expression from low to high. The GFP expression levels can be an indicator of shRNA expression levels and are inversely related to the levels of LRBA. […]
# Raji cells = test: Cell surface CVID and TLR4 receptors on LRBA WT and LRBA KD Raji cells (flow cytometry)
# From the text: LRBA is an important vesicle trafficking regulator (Wang, et al., Identification of a novel lipopolysaccharide-inducible gene with key features of both A kinase anchor proteins and chs1/beige proteins. 2001. J Immunol 166: 4586-4595; Cullinane, et al., The BEACH Is Hot: A LYST of Emerging Roles for BEACH-Domain Containing Proteins in Human Disease. 2013. Traffic) and may function as a master regulator of multiple CVID receptors. To test this, LRBA WT and LRBA KD Raji cells were stimulated with LPS, and the cell surface levels of CVID receptors and TLR4 were analyzed by flow cytometry. BD FACSelect Multicolor Panel Designer was used to search antibodies and build up the panel for multiple color cytometry for LSRII FACS machine. Fluorophores directly conjugated antibodies against cell surface CVID proteins were used: CD19-PerCP-Cy5.5, CD2O-PE-Cy7, CD21-V450, BAFFR-PE, TACI-APC, and CD81-APC-H7. Two panels were used when use live/dead discrimination with DAPI […] or 7AAD (overlap with V450). The standard staining procedures were followed and 20,000 to half million cells were acquired. Data acquisition was performed using FACS LSRII flow cytometers and analyzed using FACSDiva version 6.1.2.
# [1] = Raji cell surface, LPS stimulated, Knockdown
molecule,measurement,setting,value
B1,TNFα levels in cell culture supernatants and cell lysates (ELISA),"Raji B cells; LPS stimulation for 15 min to 24 h, vs untransfected Raji B cells",significantly increased
same,secreted levels of IL-10 (CBA),"Raji B cells; Raji cells, LPS",significantly increased
same,secreted levels of TNFα (CBA),"Raji B cells; Raji cells, LPS",significantly increased
same,NFκB luciferase activity,NFκB,increases
same,BAFFR Median Intensity,Raji cells; [1],4198.00 ± 496.75 arbitrary fluorescence intensity units
same,BAFFR Percentage,Raji cells; [1],90.83 ± 0.93%
same,CD19 Median Intensity,Raji cells; [1],5830.17 ± 159.95 arbitrary fluorescence intensity units
same,CD19 Percentage,Raji cells; [1],98.57 ± 0.28%
same,CD20 Median Intensity,Raji cells; [1],29541.25 ± 332.06 arbitrary fluorescence intensity units
same,CD20 Percentage,Raji cells; [1],99.18 ± 0.04%
same,CD21 Median Intensity,Raji cells; [1],1659.50 ± 72.48 arbitrary fluorescence intensity units
same,CD21 Percentage,Raji cells; [1],55.08 ± 5.00%
same,TACI Median Intensity,Raji cells; [1],1813.50 ± 412.89 arbitrary fluorescence intensity units
same,TACI Percentage,Raji cells; [1],7.38 ± 1.49%
same,TLR4 Median Intensity,Raji cells; [1],11204.60 ± 2171.10 arbitrary fluorescence intensity units
same,TLR4 Percentage,Raji cells; [1],31.27 ± 11.42%
same,BAFFR Median Intensity fold,Raji cells; Wild type vs Knockdown,0.81↑
same,BAFFR Percentage fold,Raji cells; Wild type vs Knockdown,0.96↑
same,CD19 Median Intensity fold,Raji cells; Wild type vs Knockdown,1.23↓
same,CD19 Percentage fold,Raji cells; Wild type vs Knockdown,1.00
same,CD20 Median Intensity fold,Raji cells; Wild type vs Knockdown,1.21↓
same,CD20 Percentage fold,Raji cells; Wild type vs Knockdown,1.00
same,CD21 Median Intensity fold,Raji cells; Wild type vs Knockdown,0.96↑
same,CD21 Percentage fold,Raji cells; Wild type vs Knockdown,0.49↑
same,TACI Median Intensity fold,Raji cells; Wild type vs Knockdown,1.33↓
same,TACI Percentage fold,Raji cells; Wild type vs Knockdown,4.07↓
same,TLR4 Median Intensity fold,Raji cells; Wild type vs Knockdown,1.04
same,TLR4 Percentage fold,Raji cells; Wild type vs Knockdown,1.82↓
